Results taken from article PMC3988174, “A Split-Ubiquitin Yeast Two-Hybrid Screen to Examine the Substrate Specificity of atToc159 and atToc132, Two Arabidopsis Chloroplast Preprotein Import Receptors” (PLoS ONE, 2014).

B1: Photosystem I reaction center subunit PSI-N (natural protein, Arabidopsis thaliana, UniProt P49107 1-171, looked up)
chain: MAAMNSSVLTCSYAIAGSGSVELNQKVGLVNSSVGFGQKKQMIMPVIKAQRVVGDDVDGSNGRRSAMVFLAATLFSTAAVSASANAGVIDEYLERSKTNKELNDKKRLATSGANFARAFTVQFGSCKFPENFTGCQDLAKQKKVPFISEDIALECEGKDKYKCGSNVFWKW
B2: Protochlorophyllide oxidoreductase B (natural protein, Arabidopsis thaliana, UniProt P21218 1-401, looked up)
chain: MALQAASLVSSAFSVRKDAKLNASSSSFKDSSLFGASITDQIKSEHGSSSLRFKREQSLRNLAIRAQTAATSSPTVTKSVDGKKTLRKGNVVVTGASSGLGLATAKALAETGKWNVIMACRDFLKAERAAKSVGMPKDSYTVMHLDLASLDSVRQFVDNFRRTETPLDVLVCNAAVYFPTAKEPTYSAEGFELSVATNHLGHFLLARLLLDDLKKSDYPSKRLIIVGSITGNTNTLAGNVPPKANLGDLRGLAGGLNGLNSSAMIDGGDFDGAKAYKDSKVCNMLTMQEFHRRFHEETGVTFASLYPGCIASTGLFREHIPLFRALFPPFQKYITKGYVSETESGKRLAQVVSDPSLTKSGVYWSWNNASASFENQLSEEASDVEKARKVWEISEKLVGLA
B3: Low PSII accumulation 3 protein (natural protein)
chain: not shown
B4: Photosystem I light harvesting complex gene 3 (natural protein, Arabidopsis thaliana, UniProt Q9SY97 1-273, looked up)
chain: MAAQALVSSSLTSSVQTARQIFGSKPVASASQKKSSFVVKAAATPPVKQGANRPLWFASSQSLSYLDGSLPGDYGFDPLGLSDPEGTGGFIEPRWLAYGEIINGRFAMLGAAGAIAPEILGKAGLIPAETALPWFQTGVIPPAGTYTYWADNYTLFVLEMALMGFAEHRRLQDWYNPGSMGKQYFLGLEKGLAGSGNPAYPGGPFFNPLGFGKDEKSLKELKLKEVKNGRLAMLAILGYFIQGLVTGVGPYQNLLDHLADPVNNNVLTSLKFH
B5: Photosystem I light harvesting complex gene 2 (natural protein, Arabidopsis thaliana, UniProt Q9SYW8 1-257, looked up)
chain: MASSLCASSAIAAISSPSFLGGKKLRLKKKLTVPAVSRPDASVRAVAADPDRPIWFPGSTPPEWLDGSLPGDFGFDPLGLSSDPDSLKWNVQAEIVHCRWAMLGAAGIFIPEFLTKIGILNTPSWYTAGEQEYFTDKTTLFVVELILIGWAEGRRWADIIKPGSVNTDPVFPNNKLTGTDVGYPGGLWFDPLGWGSGSPAKLKELRTKEIKNGRLAMLAVMGAWFQHIYTGTGPIDNLFAHLADPGHATIFAAFTPK
B6: Violaxanthin Deepoxidase (natural protein, Arabidopsis thaliana, UniProt Q39249 1-462, looked up)
chain: MAVATHCFTSPCHDRIRFFSSDDGIGRLGITRKRINGTFLLKILPPIQSADLRTTGGRSSRPLSAFRSGFSKGIFDIVPLPSKNELKELTAPLLLKLVGVLACAFLIVPSADAVDALKTCACLLKGCRIELAKCIANPACAANVACLQTCNNRPDETECQIKCGDLFENSVVDEFNECAVSRKKCVPRKSDLGEFPAPDPSVLVQNFNISDFNGKWYITSGLNPTFDAFDCQLHEFHTEGDNKLVGNISWRIKTLDSGFFTRSAVQKFVQDPNQPGVLYNHDNEYLHYQDDWYILSSKIENKPEDYIFVYYRGRNDAWDGYGGAVVYTRSSVLPNSIIPELEKAAKSIGRDFSTFIRTDNTCGPEPALVERIEKTVEEGERIIVKEVEEIEEEVEKEVEKVGRTEMTLFQRLAEGFNELKQDEENFVRELSKEEMEFLDEIKMEASEVEKLFGKALPIRKVR
B7: Cytochrome b561-2 (natural protein, Arabidopsis thaliana, UniProt Q8L856 1-239, looked up)
chain: MAVRINAMAVTFVAHALAVIAAIMVLVWSISYRGGLAWEATNKNLIFNLHPVLMLIGFIILGGEAIISYKSLPLEKPVKKLIHLILHAIALALGIFGICAAFKNHNESHIPNLYSLHSWIGIGVISLYGFQWVYSFIVFFFPGGSTNLKSGLLPWHAMLGLFVYILAVGNAALGFLEKLTFLENGGLDKYGSEAFLINFTAIITILFGAFVVLTASAESPSPSPSVSNDDSVDFSYSAI
B8: Cysteine synthase (natural protein)
chain: not shown
B9: Photosystem I light harvesting complex gene 1 (natural protein, Arabidopsis thaliana, UniProt Q01667 1-241, looked up)
chain: MASNSLMSCGIAAVYPSLLSSSKSKFVSAGVPLPNAGNVGRIRMAAHWMPGEPRPAYLDGSAPGDFGFDPLGLGEVPANLERYKESELIHCRWAMLAVPGILVPEALGYGNWVKAQEWAALPGGQATYLGNPVPWGTLPTILAIEFLAIAFVEHQRSMEKDPEKKKYPGGAFDPLGYSKDPKKLEELKVKEIKNGRLALLAFVGFCVQQSAYPGTGPLENLATHLADPWHNNIGDIVIPFN
B10: Photosystem I subunit F (natural protein, Arabidopsis thaliana, UniProt Q9SHE8 1-221, looked up)
chain: MSLTIPANLVLNPRSNKSLTQSVPKSSARFVCSDDKSSSSTPQSMKAFSAAVALSSILLSAPMPAVADISGLTPCKDSKQFAKREKQQIKKLESSLKLYAPESAPALALNAQIEKTKRRFDNYGKYGLLCGSDGLPHLIVNGDQRHWGEFITPGILFLYIAGWIGWVGRSYLIAISGEKKPAMKEIIIDVPLASRIIFRGFIWPVAAYREFLNGDLIAKDV
B11: Ferredoxin-thioredoxin reductase subunit A (natural protein, Arabidopsis thaliana, UniProt Q9SJ89 1-146, looked up)
chain: MNLQAVSCSFGFLSSPLGVTPRTSFRRFVIRAKTEPSEKSVEIMRKFSEQYARRSGTYFCVDKGVTSVVIKGLAEHKDSYGAPLCPCRHYDDKAAEVGQGFWNCPCVPMRERKECHCMLFLTPDNDFAGKDQTITSDEIKETTANM
B12: AIG2-like avirulence induced gene family protein (natural protein, Arabidopsis thaliana, UniProt Q9MBH2 1-169, looked up)
chain: MTSSDKSLSHDVFVYGSFQEPSVVNLILECSPVMVPAQLHGYHVYRLKGRLHACISPSENGLINGKILTGLTDSQLENLDMIEGSEYVRKTVEVVLTDTSEKKQVETYVWANKDDPNLYGEWDFEEWRRLHMDKFIEASTKFIEWKKNPDGRSREEFEKFVFDDPPTAA
B13: 5′-Adenylylsulfate reductase 2 (natural protein, Arabidopsis thaliana, UniProt P92981 1-454, looked up)
chain: MALAVTSSSTAISGSSFSRSGASSESKALQICSIRLSDRTHLSQRRYSMKPLNAESHSRSESWVTRASTLIAPEVEEKGGEVEDFEQLAKKLEDASPLEIMDKALERFGDQIAIAFSGAEDVALIEYARLTGKPFRVFSLDTGRLNPETYRLFDAVEKQYGIRIEYMFPDAVEVQALVRNKGLFSFYEDGHQECCRVRKVRPLRRALKGLKAWITGQRKDQSPGTRSEIPIVQVDPVFEGLDGGVGSLVKWNPLANVEGADVWNFLRTMDVPVNALHAQGYVSIGCEPCTRPVLPGQHEREGRWWWEDAKAKECGLHKGNIKEEDGAADSKPAAVQEIFESNNVVALSKGGVENLLKLENRKEAWLVVLYAPWCPFCQAMEASYIELAEKLAGKGVKVAKFRADGEQKEFAKQELQLGSFPTILLFPKRAPRAIKYPSEHRDVDSLMSFVNLLR

Target: T1, atToc132 A- plus G-domains bait (Arabidopsis thaliana, UniProt Q9SLF3 1-794)
T1 construct: atToc132, A. thaliana, A- and G-domains, amino acids 1-794; also called Toc132AG; atToc132AG; source: yeast two-hybrid fusion (pBT3-STE, S. cerevisiae NMY51); not shown: STE2 leader (N-terminal 13 amino acids of S. cerevisiae Ste2), N-terminal, kept; Cub-LexA-VP16, C-terminal, kept
Test: two-hybrid; pairwise split-ubiquitin yeast two-hybrid of isolated NubG-preys with Toc159G, Toc132G or Toc132AG bait in NMY51; growth on SD-LWHA (3-AT) and quantitative β-Gal assay, activity relative to a reference bait set to 100%
Conditions: partners not purified

T1 sequence (Q9SLF3 1-794): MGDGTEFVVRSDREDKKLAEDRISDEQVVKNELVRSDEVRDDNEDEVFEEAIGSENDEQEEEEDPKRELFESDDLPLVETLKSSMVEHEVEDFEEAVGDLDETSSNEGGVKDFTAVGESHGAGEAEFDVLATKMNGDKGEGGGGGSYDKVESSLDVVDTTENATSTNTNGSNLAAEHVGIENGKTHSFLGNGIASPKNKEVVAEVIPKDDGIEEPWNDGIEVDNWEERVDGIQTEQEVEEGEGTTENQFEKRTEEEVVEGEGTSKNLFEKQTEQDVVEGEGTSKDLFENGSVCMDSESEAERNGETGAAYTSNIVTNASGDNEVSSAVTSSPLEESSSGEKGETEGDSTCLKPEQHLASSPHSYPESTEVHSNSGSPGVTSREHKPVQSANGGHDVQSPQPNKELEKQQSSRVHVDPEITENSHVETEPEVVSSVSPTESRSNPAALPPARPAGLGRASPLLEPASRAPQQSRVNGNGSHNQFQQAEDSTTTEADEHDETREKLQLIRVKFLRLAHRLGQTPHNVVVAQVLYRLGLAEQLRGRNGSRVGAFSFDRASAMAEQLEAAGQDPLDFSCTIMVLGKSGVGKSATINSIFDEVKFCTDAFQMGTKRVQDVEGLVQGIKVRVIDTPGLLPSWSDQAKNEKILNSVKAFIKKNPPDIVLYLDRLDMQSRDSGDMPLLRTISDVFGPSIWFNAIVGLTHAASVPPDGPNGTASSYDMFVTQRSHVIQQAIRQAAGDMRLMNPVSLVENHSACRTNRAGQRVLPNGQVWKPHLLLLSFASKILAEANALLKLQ

In order of rising “relative strength of interaction (β-Gal) with Toc132AG against Toc132G, % change” value:
1. B5  -36.4%
2. B2  -34.7%
3. B6  -29.9%
4. B4  -26.8%
5. B10  -25.5%
6. B1  -25.4%
7. B9  -24.5%
8. B11  -15%
9. B3  -11.7%

In order of rising “% increase in strength of interaction (β-Gal) with Toc132AG against Toc132G” value:
1. B13  24.5%
2. B12  41.3%
3. B7  49.6%
4. B8  175%
